As usually defined, the stoichiometry N is a count of units in the complex or per binding partner. The Kd is the concentration at which binding is half-saturated. Low readings indicate higher affinity, high ones lower affinity.

In assay [1] the target is Streptococcus pyogenes Cas9 (Streptococcus pyogenes) (UniProt Q99ZW2). The assay is described as follows: cryo-EM structure.
For assay [2] the target is unchanged. Kind of assay: native gel or EMSA. (In EMSA bound probe runs differently from free probe, usually more slowly.)

In turn, AcrIIA2 (natural protein) displayed a stoichiometry N in assay [1] of 1. Besides, in assay [2], the Kd worked out at 0.512 µM.

The record behind these values is paper PMC6480404.
